Experimental data reported in US20140100836A1 (ETH ZURICH, published 2014).
Non-standard residues stand in square brackets, D forms with d. Phe(4-NO2) = N[C@@H](Cc1ccc([N+](=O)[O-])cc1)C(=O)O

Biological target: T1, acceptor hexapeptide Ac-DQNATF{4NO2}-NH2 (SMILES CC(=O)N[C@@H](CC(=O)O)C(=O)N[C@@H](CCC(N)=O)C(=O)N[C@@H](CC(N)=O)C(=O)N[C@@H](C)C(=O)N[C@H](C(=O)N[C@@H](Cc1ccc([N+](=O)[O-])cc1)C(N)=O)[C@@H](C)O)
T1 construct: also called DQNATF{pNO2}; acceptor peptide
T1 peptide: Ac-DQNAT[Phe(4-NO2)]-NH2
Assay: calculated from the X-ray co-crystal structure with areaimol

B1: oligosaccharyltransferase (OST) PgIB from Campylobacter lari, full length, with C-terminal decahistidine affinity tag (expressed from pSF2, purified in DDM and … (enzyme)
chain: MELQQNFTDNNSIKYTCILILIAFAFSVLCRLYWVAWASEFYEFFFNDQLMITTNDGYAFAEGARDMIAGFHQPNDLSYFGSSLSTLTYWLYSILPFSFESIILYMSTFFASLIVVPIILIAREYKLTTYGFIAALLGSIANSYYNRTMSGYYDTDMLVLVLPMLILLTFIRLTINKDIFTLLLSPIFIMIYLWWYPSSYSLNFAMIGLFGLYTLVFHRKEKIFYLAIALMIIALSMLAWQYKLALIVLLFAIFAFKEEKINFYMIWALIFISISILHLSGGLDPVLYQLKFYVFKASDVQNLKDAAFMYFNVNETIMEVNTIDPEVFMQRISSSVLVFILSFIGFILLCKDHKSMLLALPMLALGFMALRAGLRFTIYAVPVMALGFGYFLYAFFNFLEKKQIKLSLRNKNILLILIAFFSISPALMHIYYYKSSTVFTSYEASILNDLKNKAQREDYVVAWWDYGYPIRYYSDVKTLIDGGKHLGKDNFFSSFVLSKEQIPAANMARLSVEYTEKSFKENYPDVLKAMVKDYNQTSAKDFLESLNDKNFKFDTNKTRDVYIYMPYRMLRIMPVVAQFANTNPDNGEQEKSLFFSQANAIAQDKTTGSVMLDNGVEIINDFRALKVEGASIPLKAFVDIESITNGKFYYNEIDSKAQIYLLFLREYKSFVILDESLYNSAYIQMFLLNQYDQDLFEQVTNDTRAKIYRLKR
notes: Residues 283-306, 605-607 and the His tag are disordered in the structure; also called C. lari PgIB; PglB
contact surface of the peptide buried at the interface of the TM and periplasmic domains: ~80%
